Target: the molecule itself
Test: DSSO chemical crosslinking in HEK 293T cells
Source text: Applicant tested if endogenous NANOG could spontaneously assemble in H9 human embryonic stem cells (ESCs) as well as nucleofected NANOG in differentiated HEK 293T mammalian cells.

B1: NANOG ΔWR deletion mutant expressed in HEK 293T cells (other, human, UniProt Q9H9S0 1-305, looked up)
chain: MSVDPACPQSLPCFEASDCKESSPMPVICGPEENYPSLQMSSAEMPHTETVSPLPSSMDLLIQDSPDSSTSPKGKQPTSAEKSVAKKEDKVPVKKQKTRTVFSSTQLCVLNDRFQRQKYLSLQQMQELSNILNLSYKQVKTWFQNQRMKSKRWQKNNWPKNSNGVTQKASAPTYPSLYSSYHQGCLVNPTGNLPMYNCGEESLQSCMQFQPNSPASDLEAALEAAGEGLNVIQQTTRYFSTPQTMDLFLNYSMNMQPEDV
notes: whole, on cells; also called WR mutants
binding result: no binding

— patent US20240383953A1 (BAYLOR COLLEGE OF MEDICINE, published 2024)
